{"source": "patent US20260250418A1", "about": "(BIOCYTOGEN PHARMACEUTICALS BEIJING, published 2026)", "binders": {"B1": {"name": "Patritumab analog (antibody, V domains shown)", "VH": "QVQLQQWGAGLLKPSETLSLTCAVYGGSFSGYYWSWIRQPPGKGLEWIGEINHSGSTNYNPSLKSRVTISVETSKNQFSLKLSSVTAADTAVYYCARDKWTWYFDLWGRGTLVTVSS", "VL": "not shown", "notes": "also called positive control"}, "B2": {"name": "anti-HER3 antibody 1D6 (antibody, V domains shown)", "VH": "EVQLVQSGPGLVKPSETLSLTCTVSGGSISSNNYYWAWIRQPPGKGLEWIGSLYYTGRAYYKSSLKSRVTISVDTSNDQFSLRLTSVTAADTAIYYCARHDCGNTCLNWFDRWGQGTLVTVSS", "VL": "not shown", "notes": "common light chain"}}, "key": {"[1]": {"biological_target": "T1, human HER4 (hHER4, ACRO Biosystems Inc., Cat #: ER4-H5221), recombinant His-tagged (human, UniProt Q15303 26-649)", "T1 construct": "Bought protein; not shown: His tag", "T1 sequence (looked up)": "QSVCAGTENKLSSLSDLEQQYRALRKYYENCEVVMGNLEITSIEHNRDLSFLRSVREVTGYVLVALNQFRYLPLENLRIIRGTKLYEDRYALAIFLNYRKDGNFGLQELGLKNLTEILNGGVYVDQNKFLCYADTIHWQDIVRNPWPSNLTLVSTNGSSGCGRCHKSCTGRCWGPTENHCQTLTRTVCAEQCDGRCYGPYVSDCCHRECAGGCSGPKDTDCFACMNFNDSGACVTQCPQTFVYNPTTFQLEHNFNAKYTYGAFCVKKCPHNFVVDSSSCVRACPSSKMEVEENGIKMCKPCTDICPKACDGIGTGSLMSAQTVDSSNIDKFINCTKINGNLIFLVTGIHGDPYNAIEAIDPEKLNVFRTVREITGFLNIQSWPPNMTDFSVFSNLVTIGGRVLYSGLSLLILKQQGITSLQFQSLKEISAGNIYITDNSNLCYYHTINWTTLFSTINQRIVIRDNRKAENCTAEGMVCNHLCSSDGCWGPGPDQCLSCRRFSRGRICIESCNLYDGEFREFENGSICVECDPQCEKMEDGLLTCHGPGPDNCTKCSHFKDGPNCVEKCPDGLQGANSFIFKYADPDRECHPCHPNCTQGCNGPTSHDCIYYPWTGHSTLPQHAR", "assay": "SPR (Biacore 8K), antibody captured on Protein A chip, His-tagged hHER4 injected at 0-400 nM; response (RU) plotted against concentration [panel F]", "method": "The cross binding activities of anti-HER3 antibodies to HER family proteins were determined by surface plasmon resonance (SPR) using Biacore (Biacore, INC, Piscataway N.J.) 8K biosensor equipped with pre-immobilized Protein A sensor chips.\nPurified anti-HER3 antibodies were diluted to 2 μg/mL and then injected into the Biacore 8K biosensor at 10 μL/min for about 50 seconds to achieve a desired protein density (e.g., about 200 response units (RU)). […] The association phase lasted for 180 s and the dissociation phase lasted 400 s followed by a regeneration step with Glycine (pH 2.0, 30 μL/min for 30 seconds). For isotype control (ISO), an antibody targeting an irrelevant target protein was used."}, "[2]": {"biological_target": "T2, dog HER3 on CHO-dHER3 cells (dog, UniProt P21860 20-1342 (human entry))", "T2 construct": "CHO-S cells transfected with dHER3", "T2 chain": "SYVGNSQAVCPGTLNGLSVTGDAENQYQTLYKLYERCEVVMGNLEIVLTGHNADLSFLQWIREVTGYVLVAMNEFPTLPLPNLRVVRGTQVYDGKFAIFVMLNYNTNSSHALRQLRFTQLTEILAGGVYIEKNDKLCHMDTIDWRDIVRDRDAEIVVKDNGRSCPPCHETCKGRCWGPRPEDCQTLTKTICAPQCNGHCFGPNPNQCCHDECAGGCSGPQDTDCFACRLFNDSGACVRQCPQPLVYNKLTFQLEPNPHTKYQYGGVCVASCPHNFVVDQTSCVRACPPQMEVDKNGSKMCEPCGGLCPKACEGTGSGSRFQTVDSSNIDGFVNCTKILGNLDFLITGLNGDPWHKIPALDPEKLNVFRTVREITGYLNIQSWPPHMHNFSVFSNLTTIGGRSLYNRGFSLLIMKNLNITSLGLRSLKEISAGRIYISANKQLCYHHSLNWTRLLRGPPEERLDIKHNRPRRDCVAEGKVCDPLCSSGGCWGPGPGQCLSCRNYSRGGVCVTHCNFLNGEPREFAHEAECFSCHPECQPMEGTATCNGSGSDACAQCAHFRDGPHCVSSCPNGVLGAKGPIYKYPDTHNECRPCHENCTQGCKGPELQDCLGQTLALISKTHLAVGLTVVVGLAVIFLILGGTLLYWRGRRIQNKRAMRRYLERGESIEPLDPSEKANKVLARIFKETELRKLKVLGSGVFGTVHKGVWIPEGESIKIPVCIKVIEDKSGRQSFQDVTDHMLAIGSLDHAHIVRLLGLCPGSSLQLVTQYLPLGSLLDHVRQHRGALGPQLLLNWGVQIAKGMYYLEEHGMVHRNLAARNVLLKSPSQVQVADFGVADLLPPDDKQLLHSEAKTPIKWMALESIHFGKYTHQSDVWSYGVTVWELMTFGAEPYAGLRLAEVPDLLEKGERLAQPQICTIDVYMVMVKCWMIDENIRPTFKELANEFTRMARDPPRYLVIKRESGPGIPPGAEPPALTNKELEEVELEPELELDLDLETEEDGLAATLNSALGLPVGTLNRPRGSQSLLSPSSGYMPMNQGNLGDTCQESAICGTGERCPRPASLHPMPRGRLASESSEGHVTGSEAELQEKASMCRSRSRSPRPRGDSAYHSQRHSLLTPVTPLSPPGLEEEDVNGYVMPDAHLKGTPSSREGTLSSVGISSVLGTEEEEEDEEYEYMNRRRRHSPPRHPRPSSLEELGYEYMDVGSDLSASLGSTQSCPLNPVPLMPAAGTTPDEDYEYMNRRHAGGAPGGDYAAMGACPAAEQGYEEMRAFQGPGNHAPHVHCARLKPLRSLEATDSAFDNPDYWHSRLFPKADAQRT", "assay": "flow cytometry, transfected CHO cells", "method": "(§1) CHO-hHER3 cells, CHO-mHER3 cells, CHO-fasHER3 cells or CHO-dHER3 cells were transferred to a 96-well plate at a density of 5×10⁴ cells/well respectively. The anti-HER3 antibodies were added to the 96-well plate, and incubated at 4° C. for 30 min."}, "[3]": {"biological_target": "T3, human HER3 on CHO-hHER3 cells (human, UniProt P21860 20-643)", "T3 construct": "CHO-S cells transfected with hHER3", "assay": "flow cytometry, transfected CHO cells", "method": "as §1"}, "[4]": {"biological_target": "T4, mouse HER3 on CHO-mHER3 cells (mouse, UniProt Q61526 20-641)", "T4 construct": "CHO-S cells transfected with mHER3", "T4 sequence (Q61526 20-641)": "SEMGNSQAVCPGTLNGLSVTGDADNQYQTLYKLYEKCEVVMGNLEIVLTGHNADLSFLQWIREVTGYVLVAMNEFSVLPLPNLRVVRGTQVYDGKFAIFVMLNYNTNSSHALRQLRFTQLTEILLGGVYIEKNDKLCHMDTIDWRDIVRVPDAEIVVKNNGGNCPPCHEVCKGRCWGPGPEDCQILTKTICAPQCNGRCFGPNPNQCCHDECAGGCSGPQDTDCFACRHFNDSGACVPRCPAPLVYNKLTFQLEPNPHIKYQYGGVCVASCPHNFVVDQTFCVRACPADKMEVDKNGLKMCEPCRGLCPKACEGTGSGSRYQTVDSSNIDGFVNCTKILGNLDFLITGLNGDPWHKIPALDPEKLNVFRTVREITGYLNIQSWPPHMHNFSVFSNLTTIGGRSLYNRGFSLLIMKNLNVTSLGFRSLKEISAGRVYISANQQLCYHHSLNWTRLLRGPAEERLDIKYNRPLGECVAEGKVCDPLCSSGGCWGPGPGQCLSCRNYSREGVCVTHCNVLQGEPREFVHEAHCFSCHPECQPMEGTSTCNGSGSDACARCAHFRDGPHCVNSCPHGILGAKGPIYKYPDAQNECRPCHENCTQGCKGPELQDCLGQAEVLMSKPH", "assay": "flow cytometry, transfected CHO cells", "method": "as §1"}, "[5]": {"biological_target": "T5, monkey (Macaca fascicularis) HER3 on CHO-fasHER3 cells (monkey (Macaca fascicularis), UniProt P21860 20-643 (human entry))", "T5 construct": "CHO-S cells transfected with fasHER3", "T5 chain": "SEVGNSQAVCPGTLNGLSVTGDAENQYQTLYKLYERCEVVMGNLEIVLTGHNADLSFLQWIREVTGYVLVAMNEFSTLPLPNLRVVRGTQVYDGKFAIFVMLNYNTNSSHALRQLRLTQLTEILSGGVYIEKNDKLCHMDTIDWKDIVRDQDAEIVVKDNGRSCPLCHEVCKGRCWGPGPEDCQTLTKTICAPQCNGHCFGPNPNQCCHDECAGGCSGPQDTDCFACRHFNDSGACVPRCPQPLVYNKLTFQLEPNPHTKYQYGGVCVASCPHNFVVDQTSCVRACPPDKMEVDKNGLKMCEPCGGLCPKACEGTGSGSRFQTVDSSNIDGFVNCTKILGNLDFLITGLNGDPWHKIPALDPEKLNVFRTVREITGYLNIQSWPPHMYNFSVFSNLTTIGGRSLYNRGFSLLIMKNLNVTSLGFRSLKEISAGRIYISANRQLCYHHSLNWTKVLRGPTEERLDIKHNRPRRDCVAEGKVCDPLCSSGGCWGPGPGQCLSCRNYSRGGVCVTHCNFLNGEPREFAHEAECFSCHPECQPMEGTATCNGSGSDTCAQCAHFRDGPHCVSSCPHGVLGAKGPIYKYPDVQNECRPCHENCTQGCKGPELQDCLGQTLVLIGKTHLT", "assay": "flow cytometry, transfected CHO cells", "method": "as §1"}, "[6]": {"biological_target": "T6, His-tagged dog HER3 protein (dHER3, SEQ ID NO: 45) (dog, UniProt P21860 20-642 (human entry))", "T6 construct": "not shown: His tag", "T6 chain": "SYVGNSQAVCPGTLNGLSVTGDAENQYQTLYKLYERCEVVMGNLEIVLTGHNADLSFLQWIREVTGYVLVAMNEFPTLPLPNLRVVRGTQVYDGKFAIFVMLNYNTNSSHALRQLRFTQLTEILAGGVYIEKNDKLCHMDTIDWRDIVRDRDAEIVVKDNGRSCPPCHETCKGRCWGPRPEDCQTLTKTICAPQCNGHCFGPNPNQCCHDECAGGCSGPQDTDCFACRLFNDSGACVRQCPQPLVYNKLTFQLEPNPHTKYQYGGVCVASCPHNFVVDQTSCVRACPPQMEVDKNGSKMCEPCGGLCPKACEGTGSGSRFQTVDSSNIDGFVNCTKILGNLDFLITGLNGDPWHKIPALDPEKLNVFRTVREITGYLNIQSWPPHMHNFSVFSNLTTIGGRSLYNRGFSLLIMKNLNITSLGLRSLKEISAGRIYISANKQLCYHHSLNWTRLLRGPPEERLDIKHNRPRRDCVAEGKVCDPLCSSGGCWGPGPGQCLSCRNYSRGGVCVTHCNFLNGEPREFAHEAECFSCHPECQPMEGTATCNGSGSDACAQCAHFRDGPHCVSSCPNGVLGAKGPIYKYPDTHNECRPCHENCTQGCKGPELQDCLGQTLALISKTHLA", "assay": "SPR, Ab captured on Protein A", "method": "(§2) Purified anti-HER3 antibodies was captured on the Protein A chip (Series S Sensor Chip Protein A) for the detection. […] For ISO control, an antibody targeting an irrelevant target protein was used. The flow rate was 30 μL/min, the binding and dissociation time were set to 180 s and 400 s, respectively. The chip was regenerated after the last injection of each titration with a glycine solution (pH 2.0) at 30 μL/min for 30 seconds.\n(§3) As a person of ordinary skill in the art would understand, the same method with appropriate adjustments for parameters (e.g., antibody concentration) was performed for each tested antibody."}, "[7]": {"biological_target": "T7, His-tagged monkey HER3 protein (fasHER3, Sino Biological, Inc., Cat #: 90043-K08H) (monkey)", "T7 construct": "Bought protein", "assay": "SPR, Ab captured on Protein A", "method": "as §2, §3"}, "[8]": {"biological_target": "T8, His-tagged human HER3 protein (hHER3, ACRO Biosystems Inc., Cat #: ER3-H5223) (human, UniProt P21860 20-643)", "T8 construct": "Bought protein; also called hHER3-His; not shown: His tag", "assay": "SPR, Ab captured on Protein A", "method": "as §2, §3"}}, "data": [{"binder": "B1", "values": [{"measurement": "binding result", "setting": "[1]", "value": "no binding (tested: 400 nM)"}]}, {"binder": "B2", "values": [{"measurement": "Percentage of Positive Cells", "setting": "[2]", "value": 38.1, "unit": "%"}, {"measurement": "Percentage of Positive Cells", "setting": "[3]", "value": 68, "unit": "%"}, {"measurement": "Percentage of Positive Cells", "setting": "[4]", "value": 58.9, "unit": "%"}, {"measurement": "Percentage of Positive Cells", "setting": "[5]", "value": 62.9, "unit": "%"}, {"measurement": "Kd", "setting": "[6]", "value": 77.4, "unit": "nM"}, {"measurement": "koff", "setting": "[6]", "value": 0.0045, "unit": "s⁻¹"}, {"measurement": "kon", "setting": "[6]", "value": 58100, "unit": "M⁻¹ s⁻¹"}, {"measurement": "Kd", "setting": "[7]", "value": 14.4, "unit": "nM"}, {"measurement": "koff", "setting": "[7]", "value": 0.00098, "unit": "s⁻¹"}, {"measurement": "kon", "setting": "[7]", "value": 68000, "unit": "M⁻¹ s⁻¹"}, {"measurement": "Kd", "setting": "[8]", "value": 81.4, "unit": "nM"}, {"measurement": "koff", "setting": "[8]", "value": 0.00769, "unit": "s⁻¹"}, {"measurement": "kon", "setting": "[8]", "value": 94500, "unit": "M⁻¹ s⁻¹"}]}]}
